Here are results for 1 molecule from patent US20220396631A1 (Novartis, published 2022).

The target of the assay is T1, CD58 Full ECD (human, UniProt P19256 30-215).
T1 construct: Recombinant, made in HEK293 cells
T1 sequence: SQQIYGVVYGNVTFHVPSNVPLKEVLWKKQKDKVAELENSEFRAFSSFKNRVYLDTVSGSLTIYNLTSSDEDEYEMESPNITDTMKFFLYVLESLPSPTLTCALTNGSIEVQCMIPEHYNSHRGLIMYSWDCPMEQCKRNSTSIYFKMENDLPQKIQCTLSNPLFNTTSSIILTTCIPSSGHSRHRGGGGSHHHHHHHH
Put plainly: isothermal titration calorimetry; 100 uM CD2 titrated into 10 uM CD58 variant in HBS. Here is the method: To ensure the binding affinity remained uncompromised by the additional of the stabilizing disulfide variance, isothermal calorimetry (ITC) was performed on the resulting recombinant CD58 proteins to determine their apparent KD and binding stoicheometry (n) to recombinant human CD2.
Briefly, recombinant human CD2 and recombinant human CD58 variants were dialyzed into HEPES-buffered saline (HBS). CD2 was diluted to final concentration of 100 μM, CD58 variants were diluted to 10 μM. CD2 was titrated into 10 μM of CD58 variants via multiple injections and ΔH (kcal/mole) determined using a MicroCal VP-ITC isothermal titration calorimeter (Malvern). Titrations of CD2 into HBS were used as a reference and KD and n determined from the resulting data.
On the technique in general: ITC needs no label: the signal is the heat of the interaction.

B1: Human CD2 (receptor)
chain: KEITNALETWGALGQDINLDIPSFQMSDDIDDIKWEKTSDKKKIAQFRKEKETFKEKDTYKLFKNGTLKIKHLKTDDQDIYKVSIYDTKGKNVLEKIFDLKIQERVSKPKISWTCINTTLTCEVMNGTDPELNLYQDGKHLKLSQRVITHKWTTSLSAKFKCTAGNKVSKESSVEPVSCPEKGLD
notes: also called recombinant human CD2; CD2 extracellular domain
A word on the Kd: it is the concentration at which binding is half-saturated. Regarding B1, binding was put at a Kd of 0.57 µM.
